# Test results taken from patent US7446182.
# Tests used:
# [1] = molecular target: Bacillus anthracis protective antigen (PA), 83 kDa polypeptide (Bacillus anthracis) (UniProt P13423)
# [2] = molecular target: Bacillus anthracis protective antigen (PA), 83 kDa polypeptide (Bacillus anthracis) (UniProt P13423); remark: listed apart in the source
# Sequence of Bacillus anthracis protective antigen (PA), 83 kDa polypeptide (Bacillus anthracis) (P13423 30-764 limits assumed): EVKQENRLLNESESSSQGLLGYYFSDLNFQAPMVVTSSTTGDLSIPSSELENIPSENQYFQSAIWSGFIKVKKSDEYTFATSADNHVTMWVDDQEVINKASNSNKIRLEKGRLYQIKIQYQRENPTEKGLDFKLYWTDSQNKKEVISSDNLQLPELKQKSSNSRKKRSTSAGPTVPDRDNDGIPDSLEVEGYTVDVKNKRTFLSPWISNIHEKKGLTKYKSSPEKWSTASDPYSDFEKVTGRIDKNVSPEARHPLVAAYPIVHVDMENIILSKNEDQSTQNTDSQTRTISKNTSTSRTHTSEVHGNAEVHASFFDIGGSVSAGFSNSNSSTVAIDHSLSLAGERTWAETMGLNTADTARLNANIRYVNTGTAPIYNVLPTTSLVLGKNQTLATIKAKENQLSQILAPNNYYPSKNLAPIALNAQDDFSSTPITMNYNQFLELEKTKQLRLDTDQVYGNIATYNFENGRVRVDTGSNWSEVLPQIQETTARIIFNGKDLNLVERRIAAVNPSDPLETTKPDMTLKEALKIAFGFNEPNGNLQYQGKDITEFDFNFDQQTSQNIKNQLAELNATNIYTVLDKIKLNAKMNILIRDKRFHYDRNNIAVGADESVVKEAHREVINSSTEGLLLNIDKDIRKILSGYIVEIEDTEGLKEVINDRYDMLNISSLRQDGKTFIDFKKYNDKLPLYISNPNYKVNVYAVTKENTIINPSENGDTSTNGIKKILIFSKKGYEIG
substance,measurement,setting,value
14B7 scFv with the mutation L97Leu:Ala,Kd,[1],63 nM
same,koff,[1],0.019 s⁻¹
same,kon,[1],300000 M⁻¹ s⁻¹
same,fold higher KD than 14B7,[2],> 5 fold
